Results on five molecules are retold here after US20130129739A1 (Bayer, published 2013).

“And” between values parts separate entries of the source, which are not always exact repeats. Equal values may be shown once.

Test [1] deals with T1, extracellular domain of human PRLR (monomeric, soluble) (human, UniProt P16471 25-234).
T1 construct: also called ECD-PRLR; ECD of PRLR
T1 sequence: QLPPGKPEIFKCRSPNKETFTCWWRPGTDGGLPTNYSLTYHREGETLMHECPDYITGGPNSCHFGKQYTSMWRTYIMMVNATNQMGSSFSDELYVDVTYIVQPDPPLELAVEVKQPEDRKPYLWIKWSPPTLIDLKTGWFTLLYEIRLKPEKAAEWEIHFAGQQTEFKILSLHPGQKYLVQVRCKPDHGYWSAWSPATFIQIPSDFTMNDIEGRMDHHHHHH
The test is described as follows: SPR (Biacore), IgG1 directly immobilized, monomeric human PRLR ECD from HEK293 as analyte.

Test [2] addresses T2, human prolactin receptor (PRLR) on cells (human, UniProt P16471 25-622).
T2 construct: whole, on cells; also called human PRLR; hPRLR
T2 sequence (looked up): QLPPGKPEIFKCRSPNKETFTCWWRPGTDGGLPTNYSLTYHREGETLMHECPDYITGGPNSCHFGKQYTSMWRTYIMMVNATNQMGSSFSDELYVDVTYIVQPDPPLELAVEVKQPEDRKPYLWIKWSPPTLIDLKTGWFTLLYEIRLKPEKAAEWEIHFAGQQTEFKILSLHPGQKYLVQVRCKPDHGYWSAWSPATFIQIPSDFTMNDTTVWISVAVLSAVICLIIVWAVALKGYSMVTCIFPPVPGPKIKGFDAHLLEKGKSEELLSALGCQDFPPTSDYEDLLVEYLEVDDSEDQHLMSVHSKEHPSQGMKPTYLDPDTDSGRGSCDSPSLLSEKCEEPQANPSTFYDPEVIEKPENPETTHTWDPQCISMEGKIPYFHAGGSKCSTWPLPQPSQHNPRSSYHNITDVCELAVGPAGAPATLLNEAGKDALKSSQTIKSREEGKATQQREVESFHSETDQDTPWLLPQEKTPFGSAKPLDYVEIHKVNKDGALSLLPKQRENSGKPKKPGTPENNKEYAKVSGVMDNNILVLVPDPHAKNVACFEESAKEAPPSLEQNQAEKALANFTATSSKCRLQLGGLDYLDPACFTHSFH
The test can be described thus: FACS on human breast cancer cell line T47D, IgG1.

Test [3] deals with T2, human prolactin receptor (PRLR) on cells. The test is described as follows: cell-based or functional assay.
Test [4] concerns the target T3, rat prolactin receptor (PRLR) on Nb2 lymphoma cells (rat, UniProt P05710 20-610).
T3 construct: whole, on cells; also called rat PRLR
T3 sequence (looked up): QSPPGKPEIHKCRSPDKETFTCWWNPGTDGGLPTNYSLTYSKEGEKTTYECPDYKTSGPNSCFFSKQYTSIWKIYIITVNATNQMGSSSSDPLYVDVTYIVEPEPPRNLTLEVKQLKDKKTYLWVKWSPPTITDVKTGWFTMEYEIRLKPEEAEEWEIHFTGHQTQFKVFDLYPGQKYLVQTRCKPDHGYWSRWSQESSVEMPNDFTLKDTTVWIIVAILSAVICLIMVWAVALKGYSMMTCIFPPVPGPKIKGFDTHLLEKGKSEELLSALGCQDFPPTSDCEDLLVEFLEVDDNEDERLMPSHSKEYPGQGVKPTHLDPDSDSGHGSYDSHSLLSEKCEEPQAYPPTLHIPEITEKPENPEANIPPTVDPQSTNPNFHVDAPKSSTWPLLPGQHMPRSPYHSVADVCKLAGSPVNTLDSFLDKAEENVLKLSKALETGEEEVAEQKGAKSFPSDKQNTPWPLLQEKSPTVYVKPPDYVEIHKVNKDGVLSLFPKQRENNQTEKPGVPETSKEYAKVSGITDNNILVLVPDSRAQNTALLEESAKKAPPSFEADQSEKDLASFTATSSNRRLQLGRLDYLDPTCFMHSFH
The test is described as follows: FACS on rat lymphoma cell line Nb2, IgG1.

Test [5] has as its target T4, murine prolactin receptor (PRLR) on cells (mouse, UniProt Q08501 20-608).
T4 construct: whole, on cells; also called mouse PRLR; mPRLR
T4 sequence (looked up): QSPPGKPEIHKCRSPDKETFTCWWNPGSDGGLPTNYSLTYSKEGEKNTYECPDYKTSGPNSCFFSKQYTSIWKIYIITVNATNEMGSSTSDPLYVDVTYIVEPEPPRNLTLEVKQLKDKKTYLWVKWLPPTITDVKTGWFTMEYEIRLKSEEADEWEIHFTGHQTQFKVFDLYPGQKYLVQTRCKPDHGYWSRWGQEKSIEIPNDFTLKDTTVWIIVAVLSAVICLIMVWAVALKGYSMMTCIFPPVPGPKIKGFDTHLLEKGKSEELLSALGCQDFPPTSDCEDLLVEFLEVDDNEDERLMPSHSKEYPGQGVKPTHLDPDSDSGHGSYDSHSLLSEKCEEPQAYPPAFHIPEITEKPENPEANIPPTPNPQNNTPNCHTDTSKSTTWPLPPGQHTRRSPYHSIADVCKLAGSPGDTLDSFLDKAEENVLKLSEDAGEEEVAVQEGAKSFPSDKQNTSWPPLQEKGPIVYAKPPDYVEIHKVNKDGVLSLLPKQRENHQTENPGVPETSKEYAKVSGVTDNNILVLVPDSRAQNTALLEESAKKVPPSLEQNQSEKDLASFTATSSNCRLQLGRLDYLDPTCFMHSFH
The test is described as follows: flow cytometry on HEK293 cells stably expressing murine PRLR, PE anti-human IgG, fixed 0.37 µg/ml IgG. On the procedure: In order to determine the binding characteristics of the anti-PRLR antibodies on mouse and human PRLR expressed on cells, binding was tested by flow cytometry on HEK293 cells stably expressing the human and murine PRLR, respectively. The cells as well as the parental HEK293 cell line without PRLR were harvested, centrifuged and resuspended at approximately 5×10⁶ cells/ml in 1×PBS containing 2% FBS and 0.1% sodium azide (FACS buffer). The antibodies 005-C04, 001-E06 and HE06.642 were diluted to 2-fold final concentration in FACS buffer and added to appropriate sample wells (50 μl/well). For secondary antibody and autofluorescence controls, 50 μl FACS buffer was added to appropriate wells. 50 μl of cell suspension was added to each sample well. Samples were incubated at 4° C. for one hour, washed twice with cold FACS buffer and resuspended in FACS buffer containing PE-conjugated goat anti-human IgG at a 1:100 dilution. Following a 30 min incubation at 4° C., cells were washed twice with cold FACS buffer, resuspended in FACS buffer containing […] propidium iodide (Invitrogen, San Diego, Calif.) and analyzed by flow cytometry. […] This observation is consistent with the finding reported in example 9 about the missing efficacy of HE06.642 in the murine PRLR-dependent luciferase reporter gene assay. […]
A general note: A flow cytometer gives signals particle by particle.

Test [6] has as its target T4, murine prolactin receptor (PRLR) on …. The test can be described thus: cell-based or functional assay.
Test [7] deals with T3, rat prolactin receptor (PRLR) on Nb2 …. The test can be described thus: cell-based or functional assay.

B1: 006-H08 (antibody, V domains shown)
VH: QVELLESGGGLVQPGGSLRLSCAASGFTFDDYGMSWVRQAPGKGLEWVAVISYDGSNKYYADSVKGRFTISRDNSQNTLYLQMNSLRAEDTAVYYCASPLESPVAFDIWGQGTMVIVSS
VL: DIVLTQPPSASGTPGQRVTISCSGSNSNIGSNPVNWYQQLPGTAPKLLIYDNNKRPSGVPDRFSGSKSGTSASLAISGLRSEDEADYYCQSYDTGLSGWVFGGGTKLTVLG
notes: Tested as human IgG1; also called IgG1 006-H08
What is called Kd is the concentration at which binding is half-saturated. Higher therefore signals lower affinity. The koff is the first-order rate constant of dissociation. Usually EC50 stands for the concentration at which the effect is half-maximal. In the case of B1, in test [1], the Kd is 0.7 nM and the koff stood at 0.00024 s⁻¹. This molecule also came in with an EC50 in test [2] of 1.3 nM. Besides, in test [3], the “IC50, inhibition of prolactin-activated Ba/F cell proliferation (human PRLR)” value (from here on “IC50, inhibition … (human PRLR)”) is 0.15 µg/ml and 1 nM; the “IC50, prolactin-activated luciferase reporter gene activity, HEK293 cells with hPRLR” value is 0.83 mg/ml and 5.5 nM. Further, the binding result in test [4] was “no binding”.

B2: HE06.642 (antibody, V domains shown)
VH: EVQLVESGGGLVQPGGSLRLSCAVSGFTFSSYGMSWVRQAPGKGLEWVATVSSGGTYTYYPDSVKGRFTISRDNSKNTLYLQMNSLRAEDTAVYYCARHRGNYYATYYYAMDYWGQGTLVTVSS
VL: DIVLTQSPDSLAVSLGERATINCKASKSVSTSGYTYMHWYQQKPGQPPKLLIYLASNRESGVPDRFSGSGSGTDFTLTISPVQAEDVATYYCQHSGELPPSFGQGTKLEIKR
notes: Human Engineered Novartis antibody (WO2008/022295); tested as human IgG1
In test [1], B2 had a Kd of 0.3 nM and a koff of 0.00032 s⁻¹. For the same molecule, the binding result in test [5] is “no binding (tested: 0.37 µg/ml)”. In test [2], the EC50 worked out at 1.8 nM. In addition, in test [3], the “IC50, inhibition … (human PRLR)” value was 0.34 µg/ml and 2.2 nM; the “IC50, prolactin-activated luciferase reporter gene activity, HEK293 cells with hPRLR” value was 0.63 mg/ml and 4.2 nM. The “IC50, inhibition of prolactin-activated Ba/F cell proliferation (murine PRLR)” value in test [6] was > 30 mg/ml and > 200 nM. This molecule also yielded an EC50 in test [4] of 0.9 nM.

B3: 006-H07 (antibody, V domains shown)
VH: QVELLESGGGLVQPGGSLRLSCAASGFTFEDHGMSWVRQAPGKGLEWVSLISWDDGSNKYYADSVKGRFTISRDNSKNTLYLQMNSLRAEDTAVYYCATSLRATAFDTWGQGTLVTVSS
VL: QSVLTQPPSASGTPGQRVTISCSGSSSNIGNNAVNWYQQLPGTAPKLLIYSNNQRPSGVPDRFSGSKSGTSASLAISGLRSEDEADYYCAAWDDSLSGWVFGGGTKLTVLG
notes: Tested as human IgG1
B3: in test [1], the Kd came out at 2 nM and the koff worked out at 0.0013 s⁻¹. Besides, the EC50 in test [2] is 0.4 nM. Also, the binding result in test [4] is “no binding”.

B4: 005-C04 (antibody, V domains shown)
VH: EVQLLESGGGLVQPGGSLRLSCAASGFTFSSYWMHWVRQAPGKGLEWVSDISSASSYTNYADSVKGRFTISRDNSKNTLYLQMNSLRAEDTAVYYCARGLDARRMDYWGQGTLVTVSS
VL: QSVLTQPPSASGTPGQRVTISCTGSSSNIGAGYVVHWYQQLPGTAPKLLIYRNNQRPSGVPDRFSGSKSGTSASLAISGLRSEDEADYYCAAWDDSLNGWLFGGGTKLTVLG
notes: Tested as human IgG1; also called IgG1 005-C04; 005-004
In test [1], B4 came in with a Kd of 12.2 nM. The same molecule showed a dissociation rate constant (koff) in test [1] of 0.0093 s⁻¹. Besides, the 50% effective concentration (EC50) in test [2] is 1.9 nM; in test [4], 0.5 nM. Moreover, the “IC50, inhibition … (human PRLR)” value in test [3] is 1.29 µg/ml and 8.6 nM.

B5: XHA06.642 (antibody, V domains shown)
VH: EVQLVESGGDLVKPGGSLKLSCAVSGFTFSSYGMSWVRQTPDKRLEWVATVSSGGTYTYYPDSVKGRFTISRDNAKNTLYLQMSSLKSEDSAMYYCARHRGNYYATYYYAMDYWGQGTSVTVSS
VL: DIVLTQSPASLAVSLGQGATISCRASKSVSTSGYTYMHWYQQKPGQPPKLLIYLASNLESGVPARFSGSGSGTDFTLNIHPVEEEDAATYYCQHSGELPPSFGGGTKLEIKR
notes: Novartis antibody (WO2008/022295)
For the molecule B5, in test [1], the Kd came to 1.2 nM and the dissociation rate constant (koff) was 0.00013 s⁻¹. This molecule also had an EC50 in test [2] of 1.5 nM. In test [7], the “IC50, inhibition of prolactin-induced rat lymphoma cell proliferation (NB2 cells)” value was 10 µg/ml and 67 nM. For the same molecule, the “IC50, prolactin-activated luciferase reporter gene activity, HEK293 cells with mPRLR” value in test [6] was > 50 mg/ml and > 333 nM. This molecule registered an EC50 in test [4] of 1.1 nM.
